One data set deals with T1, RAR-alpha (UniProt P10276 P10276:1-462).
T1 sequence: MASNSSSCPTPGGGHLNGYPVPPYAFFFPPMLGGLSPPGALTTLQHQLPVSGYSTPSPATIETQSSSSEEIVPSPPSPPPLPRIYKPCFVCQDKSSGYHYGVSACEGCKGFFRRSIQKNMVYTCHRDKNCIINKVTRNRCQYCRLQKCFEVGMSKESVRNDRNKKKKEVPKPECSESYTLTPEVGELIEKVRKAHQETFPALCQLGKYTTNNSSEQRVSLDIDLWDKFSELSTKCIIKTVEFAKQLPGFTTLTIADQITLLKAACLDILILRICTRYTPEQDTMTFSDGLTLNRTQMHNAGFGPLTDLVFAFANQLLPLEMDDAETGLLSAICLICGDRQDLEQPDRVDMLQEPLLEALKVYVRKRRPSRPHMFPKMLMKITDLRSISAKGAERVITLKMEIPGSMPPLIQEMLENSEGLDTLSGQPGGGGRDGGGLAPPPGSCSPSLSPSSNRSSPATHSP
The data set is described as follows: EMSA; RAR alone did not produce the receptor-specific shift. The settings on record: tags: TNT reticulocyte lysate from pGEM3Z RAR-alpha cDNA; label: end-labeled. The source says: (§1) In vitro translated RAR-α was produced essentially as described under Example 8, except that ^35S-labeled methoinine was omitted. In vitro translated RXR-α was similarly produced using a pBluescript(II)(SK)-based vector containing the RXR-α cDNA described by Mangelsdorf, et al. in *Nature* 345:224–229 (1990) as the template for generating in vitro transcripts. The labeled RAR-α and RXR-α, alone or in combination, or prebound with AGN 193109 (10^-6M) either alone or in combination, were allowed to interact with an end-labeled DR-5 RARE double-stranded probe having the sequence 5'-[…]-3' (SEQ ID NO:1). The binding mixture was electrophoresed on a non-denaturing polyacrylamide gel and autoradiographed according to standard laboratory procedures. A single retarded species appearing on the autoradiograph that was common to all the lanes on the gel represented an undefined probe-binding factor present in the reticulocyte lysate. Only the RAR/RXR combination gave rise to a retinoid receptor-specific retarded species. Neither RAR alone nor RXR alone bound the probe to produce this shifted species.
(In general: Mobility shift assays separate free from complexed probe on a gel.)

A further data set addresses RXR-alpha (UniProt P19793 P19793:1-462). The data set is described as follows: EMSA; RXR alone did not produce the receptor-specific shift. The settings on record: tags: reticulocyte lysate from pBluescript(II)(SK) RXR-alpha cDNA; label: end-labeled.
Text: as §1

Sequence of RXR-alpha (P19793 whole entry, one chain of several): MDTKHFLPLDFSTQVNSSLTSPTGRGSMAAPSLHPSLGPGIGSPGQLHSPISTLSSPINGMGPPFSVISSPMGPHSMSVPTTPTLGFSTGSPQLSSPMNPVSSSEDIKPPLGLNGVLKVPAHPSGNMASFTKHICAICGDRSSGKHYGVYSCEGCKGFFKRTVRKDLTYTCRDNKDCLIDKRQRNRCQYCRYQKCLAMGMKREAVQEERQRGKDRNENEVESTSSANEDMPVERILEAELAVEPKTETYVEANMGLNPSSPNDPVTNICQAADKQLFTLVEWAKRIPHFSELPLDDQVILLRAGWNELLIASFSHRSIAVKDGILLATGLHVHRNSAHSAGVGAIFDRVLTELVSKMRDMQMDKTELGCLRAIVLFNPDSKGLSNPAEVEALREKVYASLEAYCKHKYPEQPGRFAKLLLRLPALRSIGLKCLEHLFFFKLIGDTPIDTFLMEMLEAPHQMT

B1: DR-5 RARE probe (dsDNA)
DNA 1: TCAGGTCACCAGGAGGTCAGA
DNA 2: TCTGACCTCCTGGTGACCTGA
As to B1, the binding result with RAR-alpha and with RXR-alpha was “no binding” each time.

Values taken from US5958954, “Synthesis and use of retinoid compounds having negative hormone and/or antagonist activities” (Allergan Sales, Inc.).
